For this experiment, the target named is human FcγRIIIa type V (Val158) extracellular domain with C-terminal His tag (human, UniProt P08637 17-208). Briefly: SPR.
Sequence of human FcγRIIIa type V (Val158) extracellular domain with C-terminal His tag (P08637 17-208 F176V): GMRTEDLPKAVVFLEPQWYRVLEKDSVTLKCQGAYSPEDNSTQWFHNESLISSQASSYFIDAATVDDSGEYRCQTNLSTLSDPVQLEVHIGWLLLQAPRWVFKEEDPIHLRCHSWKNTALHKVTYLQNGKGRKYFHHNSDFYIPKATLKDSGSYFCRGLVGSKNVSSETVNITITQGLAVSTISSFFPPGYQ

B1: IL6R-BP552/IL6R-L (antibody, human IgG1, kappa)
heavy: QVQLQESGPGLVKPSETLSLTCAVSGHSISHDHAWSWVRQPPGEGLEWIGFISYSGITNYNPSLQGRVTISRDNSKNTLYLQMNSLRAEDTAVYYCARSLARTTAMDYWGEGTLVTVSSASTKGPSVFPLAPSSKSTSGGTAALGCLVKDYFPEPVTVSWNSGALTSGVHTFPAVLQSSGLYSLSSVVTVPSSSLGTQTYICNVNHKPSNTKVDKKVEPKSCDKTHTCPPCPAPDLLGDDSVFLFPPKPKDTLMISRTPEVTCVVIDVAEEDGDVKFNWYVDGVEVHNAKTKPREEQDNSTYRVVSVLTVLHQDWLNGKEYKCKVSNKALPRPIEKTISKAKGQPREPQVYTLPPSRDELTKNQVSLTCLVKGFYPSDIAVEWESNGQPENNYKTTPPVLDSDGSFFLYSKLTVDKSRWQQGNVFSCSVMHEALHNHYTQESLSLSP
light: not shown
Take B1: the equilibrium dissociation constant (Kd) stood at 30 µM.

B2: IL6R-BP532/IL6R-L (antibody, human IgG1, kappa)
heavy: QVQLQESGPGLVKPSETLSLTCAVSGHSISHDHAWSWVRQPPGEGLEWIGFISYSGITNYNPSLQGRVTISRDNSKNTLYLQMNSLRAEDTAVYYCARSLARTTAMDYWGEGTLVTVSSASTKGPSVFPLAPSSKSTSGGTAALGCLVKDYFPEPVTVSWNSGALTSGVHTFPAVLQSSGLYSLSSVVTVPSSSLGTQTYICNVNHKPSNTKVDKKVEPKSCDKTHTCPPCPAPDLLGDDSVFLFPPKPKDTLMISRTPEVTCVVIDVSEEDGEVKFNWYVDGVEVHNAKTKPREEQDNSTYRVVSVLTVLHQDWLNGKEYKCKVSNKALPRPIEKTISKAKGQPREPQVYTLPPSRDELTKNQVSLTCLVKGFYPSDIAVEWESNGQPENNYKTTPMVLDSDGSFFLYSKLTVDKSRWQQGNVFSCSVMHEALHNHYTQESLSLSP
light: not shown
As for B2, the Kd is 26 µM.

B3: IL6R-BP555/IL6R-L (antibody, human IgG1, kappa)
heavy: QVQLQESGPGLVKPSETLSLTCAVSGHSISHDHAWSWVRQPPGEGLEWIGFISYSGITNYNPSLQGRVTISRDNSKNTLYLQMNSLRAEDTAVYYCARSLARTTAMDYWGEGTLVTVSSASTKGPSVFPLAPSSKSTSGGTAALGCLVKDYFPEPVTVSWNSGALTSGVHTFPAVLQSSGLYSLSSVVTVPSSSLGTQTYICNVNHKPSNTKVDKKVEPKSCDKTHTCPPCPAPELLGDDSVFLFPPKPKDTLMISRTPEVTCVVIDVAEEDGDVKFNWYVDGVEVHNAKTKPREEQDNSTYRVVSVLTVLHQDWLNGKEYKCKVSNKALPRPIEKTISKAKGQPREPQVYTLPPSRDELTKNQVSLTCLVKGFYPSDIAVEWESNGQPENNYKTTPPVLDSDGSFFLYSKLTVDKSRWQQGNVFSCSVMHEALHNHYTQESLSLSP
light: not shown
Molecule B3 came in with a Kd of 30 µM. This Kd and that of the molecule before are within 1.5-fold of each other.

B4: IL6R-BP554/IL6R-L (antibody, human IgG1, kappa)
heavy: QVQLQESGPGLVKPSETLSLTCAVSGHSISHDHAWSWVRQPPGEGLEWIGFISYSGITNYNPSLQGRVTISRDNSKNTLYLQMNSLRAEDTAVYYCARSLARTTAMDYWGEGTLVTVSSASTKGPSVFPLAPSSKSTSGGTAALGCLVKDYFPEPVTVSWNSGALTSGVHTFPAVLQSSGLYSLSSVVTVPSSSLGTQTYICNVNHKPSNTKVDKKVEPKSCDKTHTCPPCPAPELLGDDSVFLFPPKPKDTLMISRTPEVTCVVIDVAEEDGDVKFNWYVDGVEVHNAKTKPREEQYNSTYRVVSVLTVLHQDWLNGKEYKCKVSNKALPRPIEKTISKAKGQPREPQVYTLPPSRDELTKNQVSLTCLVKGFYPSDIAVEWESNGQPENNYKTTPPVLDSDGSFFLYSKLTVDKSRWQQGNVFSCSVMHEALHNHYTQESLSLSP
light: not shown
As to B4, the Kd amounted to 24 µM.

B5: IL6R-BP561/IL6R-L (antibody, human IgG1, kappa)
heavy: QVQLQESGPGLVKPSETLSLTCAVSGHSISHDHAWSWVRQPPGEGLEWIGFISYSGITNYNPSLQGRVTISRDNSKNTLYLQMNSLRAEDTAVYYCARSLARTTAMDYWGEGTLVTVSSASTKGPSVFPLAPSSKSTSGGTAALGCLVKDYFPEPVTVSWNSGALTSGVHTFPAVLQSSGLYSLSSVVTVPSSSLGTQTYICNVNHKPSNTKVDKKVEPKSCDKTHTCPPCPAPDLLGDDSVFLFPPKPKDTLMISRTPEVTCVVVDVSDEDGDVKFNWYVDGVEVHNAKTKPREEQDNSTYRVVSVLTVLHQDWLNGKEYKCKVSNKALPRPIEKTISKAKGQPREPQVYTLPPSRDELTKNQVSLTCLVKGFYPSDIAVEWESNGQPENNYKTTPPVLDSDGSFFLYSKLTVDKSRWQQGNVFSCSVMHEALHNHYTQESLSLSP
light: not shown
Molecule B5 registered a Kd of 37 µM.

B6: IL6R-BP556/IL6R-L (antibody, human IgG1, kappa)
heavy: QVQLQESGPGLVKPSETLSLTCAVSGHSISHDHAWSWVRQPPGEGLEWIGFISYSGITNYNPSLQGRVTISRDNSKNTLYLQMNSLRAEDTAVYYCARSLARTTAMDYWGEGTLVTVSSASTKGPSVFPLAPSSKSTSGGTAALGCLVKDYFPEPVTVSWNSGALTSGVHTFPAVLQSSGLYSLSSVVTVPSSSLGTQTYICNVNHKPSNTKVDKKVEPKSCDKTHTCPPCPAPELLGDDSVFLFPPKPKDTLMISRTPEVTCVVIDVGEEDGEVKFNWYVDGVEVHNAKTKPREEQDNSTYRVVSVLTVLHQDWLNGKEYKCKVSNKALPRPIEKTISKAKGQPREPQVYTLPPSRDELTKNQVSLTCLVKGFYPSDIAVEWESNGQPENNYKTTPPVLDSDGSFFLYSKLTVDKSRWQQGNVFSCSVMHEALHNHYTQESLSLSP
light: not shown
The molecule B6 gave a Kd of 60 µM.

B7: IL6R-BP531/IL6R-L (antibody, human IgG1, kappa)
heavy: QVQLQESGPGLVKPSETLSLTCAVSGHSISHDHAWSWVRQPPGEGLEWIGFISYSGITNYNPSLQGRVTISRDNSKNTLYLQMNSLRAEDTAVYYCARSLARTTAMDYWGEGTLVTVSSASTKGPSVFPLAPSSKSTSGGTAALGCLVKDYFPEPVTVSWNSGALTSGVHTFPAVLQSSGLYSLSSVVTVPSSSLGTQTYICNVNHKPSNTKVDKKVEPKSCDKTHTCPPCPAPDLLGDDSVFLFPPKPKDTLMISRTPEVTCVVIDVGEEDGEVKFNWYVDGVEVHNAKTKPREEQDNSTYRVVSVLTVLHQDWLNGKEYKCKVSNKALPRPIEKTISKAKGQPREPQVYTLPPSRDELTKNQVSLTCLVKGFYPSDIAVEWESNGQPENNYKTTPMVLDSDGSFFLYSKLTVDKSRWQQGNVFSCSVMHEALHNHYTQESLSLSP
light: not shown
In the case of B7, the Kd was found to be 27 µM.

B8: IL6R-BP537/IL6R-L (antibody, human IgG1, kappa)
heavy: QVQLQESGPGLVKPSETLSLTCAVSGHSISHDHAWSWVRQPPGEGLEWIGFISYSGITNYNPSLQGRVTISRDNSKNTLYLQMNSLRAEDTAVYYCARSLARTTAMDYWGEGTLVTVSSASTKGPSVFPLAPSSKSTSGGTAALGCLVKDYFPEPVTVSWNSGALTSGVHTFPAVLQSSGLYSLSSVVTVPSSSLGTQTYICNVNHKPSNTKVDKKVEPKSCDKTHTCPPCPAPELLGDDSVFLFPPKPKDTLMISRTPEVTCVVIDVGEEDGEVKFNWYVDGVEVHNAKTKPREEQYNSTYRVVSVLTVLHQDWLNGKEYKCKVSNKALPRPIEKTISKAKGQPREPQVYTLPPSRDELTKNQVSLTCLVKGFYPSDIAVEWESNGQPENNYKTTPPVLDSDGSFFLYSKLTVDKSRWQQGNVFSCSVMHEALHNHYTQESLSLSP
light: not shown
B8: binding was put at a Kd of 36 µM.

B9: IL6R-BP534/IL6R-L (antibody, human IgG1, kappa)
heavy: QVQLQESGPGLVKPSETLSLTCAVSGHSISHDHAWSWVRQPPGEGLEWIGFISYSGITNYNPSLQGRVTISRDNSKNTLYLQMNSLRAEDTAVYYCARSLARTTAMDYWGEGTLVTVSSASTKGPSVFPLAPSSKSTSGGTAALGCLVKDYFPEPVTVSWNSGALTSGVHTFPAVLQSSGLYSLSSVVTVPSSSLGTQTYICNVNHKPSNTKVDKKVEPKSCDKTHTCPPCPAPDLLGDDSVFLFPPKPKDTLMISRTPEVTCVVIDVSEEDGEVKFNWYVDGVEVHNAKTKPREEQDNSTYRVVSVLTVLHQDWLNGKEYKCKVSNKALPRPIEKTISKAKGQPREPQVYTLPPSRDELTKNQVSLTCLVKGFYPSDIAVEWESNGQPENNYKTTPLVLDSDGSFFLYSKLTVDKSRWQQGNVFSCSVMHEALHNHYTQESLSLSP
light: not shown
Molecule B9 gave a Kd of 25 µM.

B10: IL6R-BP535/IL6R-L (antibody, human IgG1, kappa)
heavy: QVQLQESGPGLVKPSETLSLTCAVSGHSISHDHAWSWVRQPPGEGLEWIGFISYSGITNYNPSLQGRVTISRDNSKNTLYLQMNSLRAEDTAVYYCARSLARTTAMDYWGEGTLVTVSSASTKGPSVFPLAPSSKSTSGGTAALGCLVKDYFPEPVTVSWNSGALTSGVHTFPAVLQSSGLYSLSSVVTVPSSSLGTQTYICNVNHKPSNTKVDKKVEPKSCDKTHTCPPCPAPDLLGDDSVFLFPPKPKDTLMISRTPEVTCVVIDVGEEDGEVKFNWYVDGVEVHNAKTKPREEQDNSTYRVVSVLTVLHQDWLNGKEYKCKVSNKGLPRPIEKTISKAKGQPREPQVYTLPPSRDELTKNQVSLTCLVKGFYPSDIAVEWESNGQPENNYKTTPMVLDSDGSFFLYSKLTVDKSRWQQGNVFSCSVMHEALHNHYTQESLSLSP
light: not shown
The molecule B10 showed a Kd of 33 µM. This Kd and that of the molecule before are within 1.5-fold of each other.

B11: IL6R-BP553/IL6R-L (antibody, human IgG1, kappa)
heavy: QVQLQESGPGLVKPSETLSLTCAVSGHSISHDHAWSWVRQPPGEGLEWIGFISYSGITNYNPSLQGRVTISRDNSKNTLYLQMNSLRAEDTAVYYCARSLARTTAMDYWGEGTLVTVSSASTKGPSVFPLAPSSKSTSGGTAALGCLVKDYFPEPVTVSWNSGALTSGVHTFPAVLQSSGLYSLSSVVTVPSSSLGTQTYICNVNHKPSNTKVDKKVEPKSCDKTHTCPPCPAPDLLGDDSVFLFPPKPKDTLMISRTPEVTCVVIDVAEEDGDVKFNWYVDGVEVHNAKTKPREEQYNSTYRVVSVLTVLHQDWLNGKEYKCKVSNKALPRPIEKTISKAKGQPREPQVYTLPPSRDELTKNQVSLTCLVKGFYPSDIAVEWESNGQPENNYKTTPPVLDSDGSFFLYSKLTVDKSRWQQGNVFSCSVMHEALHNHYTQESLSLSP
light: not shown
On to B11, for which the Kd turned out to be 20 µM.

The values above are taken from patent publication US20260217793A1 (Chugai, published 2026).
